Source: US20170335314

Tested on: biotinylated anti-BRD7 Fab fragment (murine IgG1 isotype; bFab) (Mus musculus)
Assay: pulldown
Settings: streptavidin bead capture with QPCR readout; PBSM (PBS with 1 mM MgCl2), overnight

GCAAAGACATCTGGACACGCCACTAAGTGGAGGTGATCTGTACTTCATTTATGAGATCGCGGCGAGGAGAAGGAGACTTAGAGGC [aptamer 228 (10AptR1)]
Kd: 11 nM
